In general, Kd refers to the free concentration of one partner at which half of the binding sites on the other are occupied at equilibrium, for simple one-to-one binding. Higher therefore signals a looser complex.

Consider 3 molecules from patent US20190135865A1 (SORBONNE UNIVERSITE, published 2019).

Non-standard residues stand in square brackets, D forms with d. No end group written: not given here. NMeR = CN[C@@H](CCCNC(=N)N)C(=O)O; Nle = CCCC[C@H](N)C(=O)O

Test [1] has as its target T1, CD47 (UniProt Q08722 19-323, limits assumed).
T1 construct: whole, on cells; The assay used a labelled whole membrane preparation from Jurkat or MEC-1 cells, not purified CD47; also called CD47 receptor
Briefly: Microscale thermophoresis (MST); NT-647-labelled Jurkat or MEC-1 cell membrane preparation held constant, peptide titrated; cyclic peptide PKTD10, FIG. 6. The procedure: (§1) Jurkat or Mec-1 cell membrane preparations are labeled using the Nanotemper NT-647 labeling kit as described elsewhere.xliv The labeled preparation is eluted with PBS and stored at 4° C. A stock solution of each peptide is prepared in DMSO (5 mM) and then diluted with PBS. For the peptides evaluated by MST, we have kept the concentration of the NT.115-labeled membrane constant, while the concentration of the ligand (peptide) was varied. After a short incubation the samples were loaded into MST premium glass capillaries and the MST analysis was performed using the Monolith NT.115-pico. […]
(§2) Binding affinity measurements. The binding affinities of peptides, here PKT16, PKTD1, PKTD10, PKTD10-1, PKTD10-3, PKTD10-5, PKDT10-7 and PKTD10-8 for a membrane preparation from Jurkat and/or MEC-1 cells were measured by Microscale Thermophoresis ^xlv on a Monolith NT115-pico system (Nanotemper Technologies, Munich, Germany).
(§3) Binding curve measured by MST. […] A local temperature difference ΔT leads to a local change in molecule concentration (depletion or enrichment), quantified by the Soret coefficient ST: cₕₒₜ/ccold=exP(−STΔT). […] For the peptides evaluated by MST, we have kept the concentration of the NT.115-labeled membrane constant, while the concentration of the ligand (peptide) was varied.

The target of test [2] is T1, CD47. Briefly: Microscale thermophoresis (MST); NT-647-labelled Jurkat or MEC-1 cell membrane preparation held constant, peptide titrated; cyclic peptide PKTD1, FIG. 6. As for the experimental part:
as §1, §2, §3

Test [3] has as its target T1, CD47. Kind of test: Microscale thermophoresis (MST); NT-647-labelled Jurkat or MEC-1 cell membrane preparation held constant, peptide titrated; linear peptide PKT16, FIG. 5. As for the experimental part: as §1, §2, §3

T1 sequence (Q08722 19-323 limits assumed): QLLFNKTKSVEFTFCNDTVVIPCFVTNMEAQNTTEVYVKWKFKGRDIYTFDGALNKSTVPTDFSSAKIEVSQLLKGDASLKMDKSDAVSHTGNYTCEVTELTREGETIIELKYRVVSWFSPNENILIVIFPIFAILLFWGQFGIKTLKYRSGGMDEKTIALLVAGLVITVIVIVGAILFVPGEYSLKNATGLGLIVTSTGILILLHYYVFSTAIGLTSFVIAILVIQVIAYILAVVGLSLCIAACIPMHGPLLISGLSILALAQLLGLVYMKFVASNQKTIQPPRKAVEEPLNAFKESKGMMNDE

B1: PKTD10 (peptide)
peptide: SRFYVVMWKPPGLSVKVVNS
HELM: PEPTIDE1{S.R.F.Y.V.V.M.W.K.[dP].P.G.L.S.V.K.V.V.N.S}$PEPTIDE1,PEPTIDE1,1:R1-20:R2$$$V2.0
SMILES: CSCC[C@@H]1NC(=O)[C@H](C(C)C)NC(=O)[C@H](C(C)C)NC(=O)[C@H](Cc2ccc(O)cc2)NC(=O)[C@H](Cc2ccccc2)NC(=O)[C@H](CCCNC(=N)N)NC(=O)[C@H](CO)NC(=O)[C@H](CO)NC(=O)[C@H](CC(N)=O)NC(=O)[C@H](C(C)C)NC(=O)[C@H](C(C)C)NC(=O)[C@H](CCCCN)NC(=O)[C@H](C(C)C)NC(=O)[C@H](CO)NC(=O)[C@H](CC(C)C)NC(=O)CNC(=O)[C@@H]2CCCN2C(=O)[C@H]2CCCN2C(=O)[C@H](CCCCN)NC(=O)[C@H](Cc2c[nH]c3ccccc23)NC1=O
notes: Cyclic peptide, linear representation -S-R-F-Y-V-V-M-W-K-p-P-G-L-S-V-K-V-V-N-S-
As for B1, in the test with CD47 [1], binding was characterised by a dissociation constant (Kd) of 49 nM.

B2: PKTD1 (peptide)
peptide: SRFYVVMWKPPGISVKVVKS
HELM: PEPTIDE1{S.R.F.Y.V.V.M.W.K.[dP].P.G.I.S.V.K.V.V.K.S}$PEPTIDE1,PEPTIDE1,1:R1-20:R2$$$V2.0
SMILES: CC[C@H](C)[C@@H]1NC(=O)CNC(=O)[C@@H]2CCCN2C(=O)[C@H]2CCCN2C(=O)[C@H](CCCCN)NC(=O)[C@H](Cc2c[nH]c3ccccc23)NC(=O)[C@H](CCSC)NC(=O)[C@H](C(C)C)NC(=O)[C@H](C(C)C)NC(=O)[C@H](Cc2ccc(O)cc2)NC(=O)[C@H](Cc2ccccc2)NC(=O)[C@H](CCCNC(=N)N)NC(=O)[C@H](CO)NC(=O)[C@H](CO)NC(=O)[C@H](CCCCN)NC(=O)[C@H](C(C)C)NC(=O)[C@H](C(C)C)NC(=O)[C@H](CCCCN)NC(=O)[C@H](C(C)C)NC(=O)[C@H](CO)NC1=O
notes: Cyclic peptide, linear representation -S-R-F-Y-V-V-M-W-K-p-P-G-I-S-V-K-V-V-K-S-
For the molecule B2, the Kd with CD47 [2] is 1.9 nM.

[dK][NMeR]FYVV[Nle]WK[dK] (also called linear PKT16 peptide) [PKT16 [(D)Lys-(N-Me)Arg-Phe-Tyr-Val-Val-Nle-Trp-Lys-(D)Lys]] registered a Kd with CD47 [3] of 1600 nM.
